Data reported in a protein production outcome set (Wang et al. 2014).

experiment: label from the status in PepcDB records
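Note: failed if final PepcDB status was selected cloned or expressed and not failed if soluble or beyond.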

Row | Sequence | protein production
1 | MVHGLDRRLGLAGRIRPDALVADRCGTLIMLAGERFYRLDPMSGRLERIPCLGGRGDRAGELSGPRAMALGSRNLYVADTDNNRVCVFATVNWQVRRFIGAENPAGEPAAGTGPGEFDRPLDLAVDPCDNLYVLDAGNRRIQRFDYHGEPVPHVPPFGADRLKQPVALALGPAPSPSGGGALVHCLDTGLTAIVTFDDQGRFLGTVGLDDLGFEPAGLAVDADGKWYVSDRERFIYAIRSAGDWSPLEEYEGKALRLFAGPGGEFYALEDGEVARLTRRRRYPPAGSWTGSGPVTGIYTSRSFDTGDGRLFWHRVTLDATVPPKTQVRLSYFIYETGRDPELLPADGEWRSFPSNPADALFERKEGRYLRVRLELISEDRHATPTVVSLRLQFPKQSYLRYLPAVFQDDERGRDFLERFLSLFESVLYDLEREIFTTRRYADPCAVPAGFLPWLASWLALPDADQWLEDGGARLRTLIARANELYRCRGTRGGLAELITLYTGKEPWIVEAFQLDRIRGRSEWRETMRLFGEDPYHFTVLLPPGGAGRTETVKRIVARERPAHTCATVVALENLFRLGGHTYLEVNTNLNQPLFALETSSSLARQTYLADGEKAGQAQVRARQGMDTLFE | failed
2 | MVHHGQMHAQPGVGLRPDTPVASGQLPSTSIRSRRSGISKAQRETWERLWPELGLLALPQSPRGTPVDTRAWFGRDAPVVLEIGSGSGTSTLAMAKAEPHVDVIAVDVYRRGLAQLLCAIDKVGSDGINIRLILGNAVDVLQHLIAPDSLCGVRVFFPDPWPKARHHKRRLLQPATMALIADRLVPSGVLHAATDHPGYAEHIAAAGDAEPRLVRVDPDTELLPISVVRPATKYERKAQLGGGAVIELLWKKHGCSERDLKIR | failed
3 | MVHMGYKITDKRDLSPIDFFVEVEAPHIAKAWKPGQFVIFILHERGERVPMSVYKAENGRIGMFIRKLGKTSLQLYYEFNVGDEFYSMVGPLGKPIKVKYYGNVVFASDAVCGQAENYATLKAMKEVGNYTISIQTFENAENVYPEEFLAKPVADEHYLTTEDGSVGIKGHYLDIVKELIEKDKVDIIFAGGKLGSLAKLAELTRPYGIPTYATVRQIMVDGTGMCGSCRILYDGEVKFACRDGPVFDAHKVDWEDVLRRANRFLEQERLAKERYLEYLRKKGVI | failed
4 | MVHQSEMENYNIGQASIEEVSDPAYKGAKIVVIGVGGGGSNMIKHLVEYGVHQDVTPIATNTDGQHLKNNPAPVKILLGKESTGGLGAGGIPDIGRKAAEESANEIKEAIKDAKLVIISTGLGGGTGTGATPTIVKIAKEVGALTIAIVTKPFKYEGNQKRKRAEEGLKELEQSSDSILVIPNDKILLTMKKNASTTECYREVDDVLVRAVSGISTIITKPGNINVDFADLKSALGFKGFALMGIGEATGEESAKLAVQNAIQSPLLDDASIEGAKSIIVFFEHHPDYPMMAYSQACDFIQDQAHQDVDVKFGQHTSDNIPIDHVRVTIIATGAERNSGGASLESIATPSQPVVKQTRKVGNGEYLKIPTEEELSIPTTMRIQQD | failed
5 | MVIGLIATLYRPKEATLYVLLYLLLGAIGLPVFSGGNGGLHTFIGQTGGFLLFFPLRALVTSLIANRKKILIQIFIANFLGEVVLFIGGAIGFIIFTHSLILTTLKLVVLPFVLPDLIKITLTTLFSLLLLKALQSQSYFKIEK | failed
6 | MVINLNDKQTKTSKEGLISVSHPLAAKIGKDVLDQGGNAMDAVIAIQLALNVVEPFASGIGGGGYLLYYEQSTGSITAFDARETAPEHVDKQFYLDDSGEYKSFFDMTTHGKTVAVPAIPKLFDYIHKRYAKLSLEDLINPAIELAIEGHAANWATEKYSRQQHARLTKYHETAQVFTHENQYWREGDWIVQPELGKTFQILREQGFNAFYKGDIAKQLVNVVKACGGTITLEDLAKYDIQIKAPISATFKDYDIYSMGPSSSGGITVIQILKLLEHVDLPSMGPRSVDYLHHLIQAMHLAYSDRAQYLADDNFHEVPVQSLIDDDYLKARSTLIDSNKANIDIEHGVVSDCISHTDVEENHTETTHFCVIDKEGNIASFTTSIGMIYGSGITIPGYGVLLNTTMDGFDVVDGGINEIAPYKRPLSNMAPTIVMYHGKPILTVGAPGAISIIASVAQTLINVLVFGMDIQQAIDEPRIYSSHPNRIEWEPQFSQSTILALIAHGHAMEHKPDAYIGDVHGLQVDPTTYEASGGSDDTREGTVMGGEVLVIRKQPLPYRQMYDSDGFRLYFNDVQLPLLADQVRWMHDKYWVDESVVRIIFPEVSAHIEDLRSYENAGENYIDIAWLARKYAYQVTLKDDGLYLTDDTYTSVKRNTNAYYRYDRDSITR | failed
7 | MVIPFARSVPLSPNTLTLLGFAVSVAAGVAFALGKPFEGGFLILFSGVFDILDGGVARAKGRITPFGGVLDSVCDRYSDGLMFLGIMAGAIYGRLSFAPFLGVEGWLWAGFALIGSFLVSYTRARAESAGCRKLSVGIAERTERMVILALGALSGFLGWALVLIAVFSHITMIQRVLRAKSILSSPSEPESQKP | failed
8 | MVIPFISGTLCQFQLSRWLITQAPALPCGPKLGAPTRQRRGCKVAQLWMYFLALAVVYLLPGPDMILLLQTGARQGKAQALATALGLALSRGCHVALAALGLAALFKAAPWTFDLVRLAGAAYLLWIGIQCLRANLLPNLEPGTAAATPLRWREAIQRGLLTNLLNPKALLFCSVLLPQFVDPQAGAVVPQFMTLGVLLVAVGGLFDCCYALAGAGLGRWMQRSPSAQRVQQWLFGSLLIGFALRLTFVQQA | failed
9 | MVIPSILEQAHALAGRAVGEGGIAVDATVGNGHDTAFLAQAVGAGGAVVGFDVQEEALVETRHRLEREALSAPVRLVHAGHQTLARHLEEAERGRVGAIMFNLGYLPGGDHSVVTRPETTRQALDAGTEALRPGGVITVVAYTGHEGGDEEADAVEAWASALPQAQFRALSYRFPNWSNDPPRLFAVEKRDALEHHHHHH | failed
10 | MVIREALLYIAMLKLEIEALQREYEDLKITKKESLHQFQEVKVEKIGEMFQVKIKSPRGENNLVNILEAFEEMGLNVAQARASCLDSFAMEAIVAPQSKDKLCSVDDLTQTLVKALVKPSVPL | failed
11 | MVIRVYIASSSGSTAIKKKQQDVLGFLEANKIGFEEKDIAANEENRKWMRENVPENSRPATGYPLPPQIFNESQYRGDYDAFFEARENNAVYAFLGLTAPPGSKEAEV | not failed
12 | MVKALFSLLFVAFIWGSTFPIQKIVLVGVSPTFYIAVRFFIAALVSYFLFGKGNVKYGSILGTLLGIAYTTQTWGLTITTSTKSGFITSMYIVFVPVFAYLLEREIPTIFQIVSFFAASLGLYMISGGIKDFNFGDFLTLICAVSFALHVVLITMFSKRVKEVDLLFPQFLVVGILNLILNFFWKNWNFTLPALGSAVFTALAATILAIYLQAKYQKALGNNVSAIVFLGEPVFAAVVSYFMLGETMAGKQLLGAALLLISMLFSSLERVKIVRDANQKGRDECEDSL | failed
13 | MVKCLSAHNKAPHVSVITPSYNSRRFIGETILSVQNQSYENWEMIIVDDCSTDQSAAKIKEIIEGDSRIRLLSLKENVGAAKARNLAIREARGRYIAFLDSDDIWLPHKLKTQLLFMEEMNIAFSYASYSLIDENGNELNREVSVPKSVDYHYLVGNTIIGCLTVMIDREKIPYVEMPSVQPEDTALWLNLLHEGHEAKGIQQVLAKYRIVANSVSSNKVRAAFRYWKLLRDQKSLNAVQSFYYFSKYAYHAYKKNKINVVGKTQLLEHHHHHH | failed
14 | MVKCMKPGKAVILLQGRYTGKKAVIVKSFDDGTVEKKYGHCLVAGLKKYPSKVIRKDSAKKTAKKSRVKCFFKVINYQHVMPTRYTLDLDLKNVVSADAISSKDKKVTALKEAKAKFEERFKTGKNRWFFTKLRF | failed
15 | MVKIGVCGPVGSGKTALIEALTRHMSKDYDMAVITNDIYTKEDAEFMCKNSVMPRERIIGVETGGCPHTAIREDASMNLEAVEEMHGRFPNLELLLIESGGDNLSATFNPELADFTIFVIDVAEGDKIPRKGGPGITRSDLLVINKIDLAPYVGADLKVMERDSKKMRGEKPFIFTNIRAKEGLDDVIAWIKRNALLED | failed
16 | MVKLDRYIGSSVFMAILAVLGIILGLASLFAFIDEMGAVNETYTVVDVMSYVALTAPRRVYEMLPMAGLIGCLIGLGSLASNSELTIMRAAGVSVGRIVWAVMKPMLVLMLVGVLVGEYVAPATETQAQASRALAQGSGDAQSSKHGLWHRQGDEFIHINAVQPNGLLYGVTRYHFDDQRHMLSSSFARQARFHEDYWQLTDVTTTYFRDGHTEVISVPGERWDVALSPQLLSTVVMAPESLSISGLWGYIHYLADQGLNNGRYWLAFWVKVLQPLVTAALVLMAISFIFGPLRSVTLGQRVFTGVLVGFTFRIAQDLLGPSSLVFGFSPLFAVLVPAGICAVAGVWLLRRAG | failed
17 | MVKLNSNPSEKGTKPPSVEDGFQTVPLITPLEVNHLQLPAPEKVIVKTRTEYQPEQKNKGKFRVPKIAEFTVTILVSLALAFLACIVFLVVYKAFTYDHSCPEGFVYKHKRCIPASLDAYYSSQDPNSRSRFYTVISHYSVAKQSTARAIGPWLSAAAVIHEPKPPKTQGH | failed
18 | MVKNGIILGKRYEVISKIGAGGMADVYKGKDHMLNRYVAIKVLKKEFKEDENFVRKFRSEAQAAAGLIHPNVVNVYDVGEDRGLYYMVMELVEGITLKEYIDKKGRLSHKETISIAIQMCTGIGVAHAANIIHRDIKPQNIIISKDGKVKVTDFGIAKATTSNTISSNAMGSVHYTSPEQARGGFSDQKSDIYSIGITLYEMVTGQVPFDGDSTVSVAIKHLQEEITPPSEIVPDIPYSLEQIILKCTQKNGERRYRNTGELIQDLKRSLVDPDGDFVVIPPLGNADTVIITDEELDDIRSSYDDEEEFDEYDEDEYGDEEEFDEYDEDDDEYDEYDDDEEYGGKGKKGKSSDDVNPRMKKVMKILTIVVAIIIVFILVFAIGKAAGIFKGGFGIDTVDTDEKTKVKVPNVVGMTEDEAKKTLNKKGLGFKVVAREESKKYEEGTVSKQKTEAGKRVAKNTTIQVVVSSGLVGDEITVPNVSNMSESEAQKALEDAGFEKITSDFAYSDSVAEGDVIGTTPAANARATKDTEIVMKVSKGSEKKTVPNVVGQQDGDAQNAITAAGLTVGTVTYEYYDDVPKGQVVSQTVAGGKKVAPGTSVGLTISSGPKPPEKVSVPPVTGISIEEARALLDGVGLKADIKYDSETVGTVGQVIKCNPGVGTQVDEGSTVTLIVISKSSQPDGGETESTQ | failed
19 | MVKSKVKKVEKGKEGEEKRSTYVLLKKVLIPILVFGFAIYAFYLRHLTAGKYFPDPDTFYHFEIYKLVLKEGLPRYYPMSDAPFGSLIGEPLGLYLLPAAFYKVVSLFGYNELQAFLLWPPFVGFLGVIAVYLLGRKVLNEWTGLWGAVVLTVSTANFSRTFSGNARGDGPFMALFIFASVAMLYYLKESNKTRKIIYGTLFVLLTVISLGAWNGSPFGLMVLLGFASLQTIILFIFGKLEELKKFVKEFYPAYLAILAFGYALTFPGIVKIGGFIRFAFEVFLGLIFLLVIMLYGGRYLNYSDKKHRFLVVTIIVLLGFGGAYAYVGPKLFRLMGGAYQSTQVYETVQELAKTTIGDVKAYYGVESGNGLIFFLSIPGLLILLTKYLYDLFKKAKSDNETLFALVFYTMSLYLLYLAVRFLFLASYAVALFFGIFIGFSMDVIEKMKENIGIKAALGIVLSLMILVIPFVHAPVLARSARALKNTEIEVTGWEQALKWLRSNTSKYATATSWWDYGYWIESSLLGNRRASADGGHARDRDHILALFLARDGNISEVDFESWELNYFIIYLNDWAKFNAISYLGGAITRKEYNGDENGRGRVTTILLTQAAGNVYVNPYARIVIKVIQQNKTRRIAVNIGQLECSPILSVAFPGNIKIKGSGRCSDGSPFPYVVYLTPSLGVLAYYKVATSNFVKLAFGIPTSSYSEFAEKLFSNFIPVYQYGSVIVYEFRPFAIYKIEDFINGTWREVGKLSPGKHTLRLYISAFGRDIKNATLYVYALNGTKIIKRIKVGEIKYMNHLEEYPIIVNVTLPTAQKYRFILAQKGPVGVLTGPVRVNGKITNPAYIMREGESGRLELKVGVDKEYTADLYLRATFIYLVRKGGKSNEDYDASFEPHMDTFFITKLKEGIKLRPGENEIVVNAEMPKNAISSYKEKLEKEHGDKLIIRGIRVEPVFIVEKEYTMIEVSASAPHHSSE | failed
